Data: patent US20200299400A1 (published 2020)

T1: human GITR on cells (human, UniProt Q9Y5U5 26-241)
T1 chain: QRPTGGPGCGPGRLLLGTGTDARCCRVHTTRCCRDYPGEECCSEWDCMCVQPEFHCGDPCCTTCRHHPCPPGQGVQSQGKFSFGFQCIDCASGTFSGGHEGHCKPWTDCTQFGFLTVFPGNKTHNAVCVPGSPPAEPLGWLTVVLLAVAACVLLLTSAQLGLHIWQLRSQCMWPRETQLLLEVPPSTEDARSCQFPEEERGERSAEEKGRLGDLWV

B1: anti-GITR-IgG2 (antibody)
heavy: QVQLVESGGGVVQPGRSLRLSCAASGFTFSSYGMHWVRQAPGKGLEWVAVIWYEGSNKYYADSVKGRFTISRDNSKNTLYLQMNSLRAEDTAVYYCARGGSMVRGDYYYGMDVWGQGTTVTVSSASTKGPSVFPLAPCSRSTSESTAALGCLVKDYFPEPVTVSWNSGALTSGVHTFPAVLQSSGLYSLSSVVTVPSSNFGTQTYTCNVDHKPSNTKVDKTVERKCCVECPPCPAPPVAGPSVFLFPPKPKDTLMISRTPEVTCVVVDVSHEDPEVQFNWYVDGVEVHNAKTKPREEQFNSTFRVVSVLTVVHQDWLNGKEYKCKVSNKGLPAPIEKTISKTKGQPREPQVYTLPPSREEMTKNQVSLTCLVKGFYPSDIAVEWESNGQPENNYKTTPPMLDSDGSFFLYSKLTVDKSRWQQGNVFSCSVMHEALHNHYTQKSLSLSPGK
light: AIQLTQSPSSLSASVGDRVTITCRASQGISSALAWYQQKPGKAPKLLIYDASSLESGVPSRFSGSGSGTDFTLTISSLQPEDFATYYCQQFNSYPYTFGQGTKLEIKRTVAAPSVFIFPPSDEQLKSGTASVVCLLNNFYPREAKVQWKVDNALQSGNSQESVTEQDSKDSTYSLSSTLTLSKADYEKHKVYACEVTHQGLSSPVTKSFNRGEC
B2: anti-GITR-IgG2-IgG1.1 (antibody)
heavy: QVQLVESGGGVVQPGRSLRLSCAASGFTFSSYGMHWVRQAPGKGLEWVAVIWYEGSNKYYADSVKGRFTISRDNSKNTLYLQMNSLRAEDTAVYYCARGGSMVRGDYYYGMDVWGQGTTVTVSSASTKGPSVFPLAPCSRSTSESTAALGCLVKDYFPEPVTVSWNSGALTSGVHTFPAVLQSSGLYSLSSVVTVPSSNFGTQTYTCNVDHKPSNTKVDKTVERKCCVECPPCPAPPVAGPSVFLFPPKPKDTLMISRTPEVTCVVVDVSHEDPEVKFNWYVDGVEVHNAKTKPREEQYNSTYRVVSVLTVLHQDWLNGKEYKCKVSNKALPSSIEKTISKAKGQPREPQVYTLPPSREEMTKNQVSLTCLVKGFYPSDIAVEWESNGQPENNYKTTPPVLDSDGSFFLYSKLTVDKSRWQQGNVFSCSVMHEALHNHYTQKSLSLSPG
light: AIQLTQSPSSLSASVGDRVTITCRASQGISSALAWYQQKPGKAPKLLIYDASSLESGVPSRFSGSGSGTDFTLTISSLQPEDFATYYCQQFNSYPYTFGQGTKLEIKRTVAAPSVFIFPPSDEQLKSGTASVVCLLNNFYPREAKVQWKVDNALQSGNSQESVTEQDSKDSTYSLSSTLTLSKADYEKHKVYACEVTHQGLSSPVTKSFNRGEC

Target: T1, human GITR on cells
Test: FACS binding to activated human CD4 T cells

| Binder | EC50 |
| --- | --- |
| B1 | 0.277 nM |
| B2 | 0.163 nM |
